The source of these data is patent CN117843805A (BEILAI PHARMACEUTICAL CO LTD, dated 2024).

Assay [1] has as its target T1, Human IL-17A重组蛋白 (IL-17A-His) (human, UniProt Q16552 24-155, biotinylated (NHS-biotin) in the ELISA of paragraph 263).
T1 construct: also called IL-17A抗原蛋白; IL-17抗原
T1 sequence: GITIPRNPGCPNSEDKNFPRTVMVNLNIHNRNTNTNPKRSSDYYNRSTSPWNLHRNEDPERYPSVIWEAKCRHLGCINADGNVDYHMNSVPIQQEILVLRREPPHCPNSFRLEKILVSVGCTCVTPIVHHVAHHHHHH
The assay is described as follows: BLI (ForteBio OCTET R2), IL-17A-His on the sensor, antibody 50-3.13 nM, 25℃.

For assay [2], the target named is T1, Human IL-17A重组蛋白 (IL-17A-His). Put plainly: ELISA, antibody coated at 2 ug/mL, Biotin-IL-17A-His titrated from 10 ug/mL, HRP-Streptavidin. For orientation: ELISA stands for enzyme-linked immunosorbent assay.
For assay [3] the target is unchanged. Put plainly: cell-based or functional assay.

One may read the Kd as the concentration at which binding is half-saturated. As a reminder, the EC50 is the concentration that produces a half-maximal response.

B1: Ixekizumab (antibody, human IgG4 S228P, kappa, V domains shown)
VH: QVQLVQSGAEVKKPGSSVKVSCKASGYSFTDYHIHWVRQAPGQGLEWMGVINPMYGTTDYNQRFKGRVTITADESTSTAYMELSSLRSEDTAVYYCARYDYFTGTGVYWGQGTLVTVSS
VL: DIVMTQTPLSLSVTPGQPASISCRSSRSLVHSRGNTYLHWYLQKPGQSPQLLIYKVSNRFIGVPDRFSGSGSGTDFTLKISRVEAEDVGVYYCSQSTHLPFTFGQGTKLEIKR
notes: Made in house in 293F cells from synthesised variable regions cloned into hIgG4 and hIgKc vectors; Protein A purified; also called 阳性对照抗体Ixekizumab; 阳性抗体
In assay [1], B1 displayed a Kd of 391 pM. Besides, the EC50 in assay [2] worked out at 10.1 µg/mL. Besides, the “IC50 of blocking Human IL-17A activation of 293F-IL-17RA-IL-17Rc-ACT1-NFκB-Luc (luciferase activity)” value in assay [3] turned out to be 1.36 µg/mL.
